Data reported in a protein production outcome set (Wang et al. 2014).

assay: label from the status in PepcDB records

Protein production, failed:
MKLTKGKVLLAGCMAMAMSHSVLAQDIKVAIVGAMSGPVAQYGDMQFTGARQAIADINASGGIKGDKLVGVEYDDACDPKQAVAVANKVINDGIRYVIGHLCSSSTQPASDIYEDEGVIMITPAATNADLTTRGYKMIMRTTGLDSDQGPTAAKYIVETIKPKRIAVVHDKQQYGEGLARSVRDSLKEQGAEVVLFEGVTAGDKDFSTLVARLKKENVDFVYFGGYYPEMGQILRQAKQAGLTARFMGPEGVGNSSLSNIAGEASEGMLVTLPKRYDQVPANQPIVDALKAKKLDPTGPFVWTTYAALQSLTTAMERTGSKEPADLANDLKTGKPVETVMGPLSWDDKGDLKGFEFGIFEWHADGSSTAVK
MKLYLILLPVLYLIVSYISIFKMHSVITRILRIVMGILLLFVVALTTLQFPKENWWVFVVLLLLVGNVEVTGFKELKDDKKGVSILNILSLLLFVIFIILIFILY
MKMKLPLPKPSTKIAKKPQQLALLNQRLNQLSQQFKQALAQEDYQRAYECVHEVIHLVPDHRVAYMDLAYTALRLKRFDAAYQHYQKALELSEKNIDPNIYDGLTEVAYFLNQQEQVRHYGHLSLKTKQKQVASETMTALPHSAPPPISIESPEQNIIAFSLFGDQPRYCETAILNVIEARKIYPEWRCRFYVDESVPSSVLSRLQQHGAQLVLVSPEQQQISGLFWRFFVMDDPEVKRFLIRDADSLISMREREAVDEWLQSDRWFHVMRDYYSHTELILAGMWGGCTGIFHQIETSIRQYIASGRYLNERVIDQHFLRYCIWPTLQQSVITHDRYLFADNASRFPQDRDRQPDWRIQYQHVGMNESAATVSVTVNHPDAVRVKWVLLNQMKQIVCQYSAQVLSNRSIEIHLPENYVEKIRLKAWNLQIYPYEN
MKMLNRLDLGVPCLRAGFAGEQAFFLAMDGRLHVQQGDQRRVVALHDGDVLSACAAPGQADAAAWLLSAGEDGRVMRAGAGEPDCVASVPNKWVTALAVAADGALAYASGRTVWLAGGGGEAAALPQERPVQALRFSHGGRWLAVAGYDGLALYDRQAGGEPQRLDWKGMPTRVAFSPDDRFVLVATRDAVLHGWRLDTLRHFRMVGYPRAVGSWSWLAGGQWLATDGSAGAVLWPFEGEEGPIGSTPLALGERPDGEVSAVACHPARPWVAVGYADGLMVLESTDGALRRILGQAGRDRVACLAWDRAGARLAYGTPSGACGVIQADTGEEG
MKMTAKMRREFPTAFLLLFLVPVMIPVGEAVWLDVPPTGTKCVSEEIQSNVVVLADYLIISEDHEVMPTISVKVTSPYGNNLHNMENVTHGQFAFTTQESGNYLACFWADEKSHGNKNVSINIDWRTGIAAKDWASIAKKEKIEGVELEIRKLEGAVEAIHENILYLRNREADMRTMSEKTNSRVAWYSIMSLGVCIAVSGFQVLYLKQYFEKKKLI
MKNDDLLMQIMMLDFAVQDSALFIDTHPCDKEAMNYFNEAATRLKAAKKEYQKQGHALVNREVGAYQNDYLSAPWPWVGDHKCGCTKNVCNTL
MKNFNDEEHNSQLTDEVLPEPEDARVIANILKAVGVESFDTRVVAQLVEFVYKYIGEVLELSKTFAQYAEREDIRQDDVKLAISSLLSKSFTQPPSRDVLLQLCRERNAVPLPVVDTYVGIQLPPKEFQLTTRNYQLKRKTTTESVASQELSEATGNISIGESSLQPNEEESNTMNT
MKNGERARAGHGSPAAPGPTAGPGPAPAPGPTVVGREAEIAEIRSRIAADRSHSSVLIVEGDPGAGKSVLLDLAVRLTRGTGQRVLRAVGSESEASLAFAGLHQMLRPVLDDLGGLPARQRSALRTALGLAEDAEDAADTPDALLVGLAVLTLVSDLSEPAPLLVVVDDAQWIDRASLDVLSFLARRMAGEPVTLLMGVRAAAVLPGFDKGYERLEIGPLSGDAANRLLDEQPKRPTGRTRARILREAAGNPLALVELARATADREPEGSGVEGPLPVTDRLEGIFARHVRHLPEATRRALLLLAAADAADAPAAARGLPEAADTVWAPAERAGLVRQDGTGVSFRHPLVRSAVYHAAPFEQRRRAHLALARQLGEEPDRRAWHLAAAAVRPDEQVSAALRETAGRARRRGGHAAAAAALERAAELSPHRADQARLLADAADTAVFTGQLGWVEHLAAGARERSDDPALIGRAALATGRLLTLGPHHTAAFALLSRVADEAAATRSPRLLDALAAAAVVRYYSGEESQRQRIEALLADVPDSAAGGALRAWVLAVSDPSGAGASLAPALPRLIAAAKGEAGSLTALAVVAWLLDRTPLAARTFDEAFGRWQAHGPLPAGLACAAGWAYLEQGRWADARSVAAEIAEVASGAGLDHAEACARTLDATVLALLGEPAEARGSAERALALVAPLESRSVAVLARRALGLAAVAEGDYDSAYAQFRAAFTEDGDLVHYHVSPTVLAELAAAAVRRGHREPAARLLERSARHLGPGMSARLFLLVERGRALLAEPERAERHFRAALAGEAGEQWPFERAQTRLDYGEWLRRQRRVAEARPLLTGALDTFRRLGARPWIDRAKAELRAAGIEADAAAPGALTELSPQQQQIVRLAAHGLTNREIGERLFLSPRTVGSHLYRVFPKLGITARAQLRDLLDDALQATGSAQ
MKNGGVFVSIALLVTITLVMGVIFVNGWTDAPNAIATAVSTRVLKPNVAIWMAVVMNFLGALVMTFFNAQVAETISNIVSFDANGNASQVALAASLFSIVVWAVAAWYFGIPTSESHALIAGLTGSAMALGGLGAVNGSEWIKVLVGLVVSTVMGFGGGYLIAKLVVKAFSAVPRRKANKFFTVGQAFGAGANAFLHGAQDGQKFMGVFMLVLFYNNLVEKTGGGFVIPLWVMVLCSITMGIGTSVGGMRIIKSVGMDMVKLERYQGFTADLSTAICLFLASAFGIPVSTTHTKTTAIMGVGASKRISSVDWRIVKEMLIAWILTFPGCGLIAYVMSKLFIAIF
MKNKGLIATLILLTILVVGELFYNKSEKRLNLSEKQVVKIGILQYVTHDALDAIEKGVEDGLAQEGYKGKKVKLTVLNAEADQSKIQAMSKQLVNHHNDILIGIATPSAQGLAASTKDTPIIMGAVSDPLGAKLVTNMKKPTTNVTGLSNVVPTKQTVQLIKDITPNIKRIGILYASSEDNSVSQVTEFTKYAQKAGLEVLKYSVPSTNEIKTSMSVMTKKVDAVFVPQDNTIASAFRTVIVAANQANIPVYSSVDTMVEQGSIASVAQSQYGLGLETAKQAIKVLRGKPVKDVPVKVIDTGKPSLNLKAAKHLGIKIPKKIMKQAEITVKVDD
MKNKLAITKLSNNVFLLLCTALTFTPIANAAEVIELTIAEPSALKPDFIGYNANMMSAMSTNPWDRTELTQLYKNTGTSIIRYPGGTIANNFDWPTGNQIKINSSGEESLGSYDYKISNFKTGYQNAGFEPIFVVNLLTRDLQHTLDGLADATAKSLPINRIELGNEFFLKDEAYVDMFPSGQDYVSKADIWTDAIKAIYPHVEIAYVSTMKKDPRSLEWNEKISQCTKCDAIIIHTYTRSELNPVLPADKSTSYFGTNEEQNQQWQQFITNSGVDIMLAQPFEAWHGYTSLNNLPSDKKIWITEFNMKDGTGPTRNTWAHALFNANQLQSFLTDGRVEIALLHNLITGAKSGSHYLGNTFSGLTIDHGQGDLSSQKYSLSAGGIAMRAFGSVLKGMDTIAKINLSDTPTVSPTGYADYDAIYGWQGSNSANEEQRYLLINTSSVSYTVNTENLTTSNKSVRQYWTKPQTFIHSEEVLSGGMVNSLPTLLKLPAYSITVIGETAIELPSNYQQTLTLTATDDHFTKEANPNGKGQPTASQININNSEGDQSRPHIKFNTNQVKGSIESVTLKVYSESVTDTVSAHKINNEWDEYELTWNTMPTLGEFINSASADKNAWLEINVTASLLKSDSLLSFALTNSLTSLNKFSSKEGNKAPELIITTSNAVINVADTNITKDDANILQYYSNSLADAVSDDDNDKLSFYKTSGPSWLMLWSNGKIEGTPTADDIGENTFAIKVSDNTGQASATTALNLTINVISDAPTNAAPVWNNIQNILQQATENISYNSNILALATDADNDALIFAKVSGPDWLSLSDAGEVTGTATNSDIGENNVIVSVTDGTNNSNEFINNELIITVTAEIAVEPINNAPTWSNENIALELATQEQAYTNNIMTFTNDLDGDILVFAKVSGPQWLTLSEAGDITGTPSGNDIGENIFILSVTDSDSDTAQVINNTFTIIVSTKPEPEPTPKTEEDNSEGGSISFSLLLLCFLRVFTMRNKF
MKNKQSKSLLIKSMALTGLFTISACANEELADTLLTNTNIYGHNNATSLAIKDGKIVYIGDEQNAMNHVSNKTQVIDLKGGYLLPGFVDNHNHVFEAASEIGSDCLLDEDKDINGYIRSLRACKEELEEGEWLLGYGHELSQLMQDNDTSPLAILDEIFPNNPVIIMEQTSHSMWVNSLALAEAGITIHSKEPQGGKILKDKTTGKLLGILLDNAGDLLMEQAWKNQPNLAEANYQGLLNGLAQASKHGITTIGDGRLYWKRGWLETWLTAEKNQALTARVSLRPWVYPADEANEQLAFFKKIKSNDKQRLIQINQVKIYSDGIIINGTASTLDPYDWSYTPQIPHGLEYIPATKMAWWLSELNKIGYGAHIHAIGDAGVRNTLNAIETLRAQGATTAYSMTHLEMVSAQDIKRFAPLRVDADFQLGSDYIAEQDHDWAIPFIGKQRAHALLPINAILNTGANVTLSSDWNVNDINPLVGIANAVYLKNMGIADIHQAIAAYTINPAQALGLDDITGTLEVGKSADIVMLERDITQSTPKQIANTRVLMTWLEGEVVYDEQTE
MKNLFLTSSFKDVVPLFTEFESNLQGKTVTFIPTASTVEEVTFYVEAGKKALESLGLLVEELDIATESLGEITTKLRKNDFIYVTGGNTFFLLQELKRTGADKLILEEIAAGKLYIGESAGAVITSPNIAYIQTMDSTKKAVNLTNYDALNLVDFSTLPHYNNTPFKEITQKIVTEYAGKSQIYPISNHEAIFIRGKEVITKRLS
MKNLIFIATTFITTISLTNIAQAANQEHIRQLLATKQCQNCDLSGAGLVMADLTGANLSGANLAGANLSRANLSGADLRGANLSGAGLFGVNLSEAKLGGANLAGADLRSTFLSNAEFTGAYLQGTNFQGALGIPLQIATPDEFYALGVAEAQKGNQQQAINYFNQAIASKPEYAGAYLARGIARYQLFDRQGAAQDAQTAEKLFTSQDNATGIQTAQAFIKELQTPYTEKLSAGKPSFFDFLGSLGSVLLQFLPF
MKNLKKKLLKLVKIFVIIFVCLAAFFVYIFIEPYWINEKTTTISDSDVPQNFEGKKIVFISDIHHGPYFERERVADLVRKVNELEPDIIILGGDYVSGDVGYIGACFEELSRLKADMGIFGVTGNHDEWTDYNLTVKCMENAGITVLSNRAEWLEIGDDKIKIAGVDWSTDWYFNSEPYVDPLIKDAEENDFVILVSHTPDLAEELTTDKVDLVLSGHTHGGQITFFGLWAPYVPSFYGQKYRTGIVKTDKTMALVSNGVGNTFLPIRFFARPQINIIILDHP
MKNMDEERKYGLYSLIIGLLCVIGIVMLNGLICYVLYIIAVPSLLYGIGAFIIPKTRRKDAGKLPFRGY

Protein production, not failed:
MKNRETDSNVVTLYVTRHGKTILNTNHRAQGWADSPLVEKGVEVATNLGTGLKDIHFMNAYSSDSGRAIETANLVLKYSEQSKLKLEQRKKLRELNFGIFEGEKLDNMWDAVGKAAGVTSPEELLKFSIQEVIDLIRAADPTKQAEDWELFSTRIKAEIDKISEEAAKDGGGNVLVVVHGLLITTLIEMLDSSKTKLGVENASVTKIVYQDGIYTVESVGDMSYVAKGKESVEI
MKNSFFSKFTPKEPKFFPLLKQLSDVLSASSVLLVESMEHDLPTERADYYKQIKDMEREGDRLTHLIFDELSTTFITPFDREDIHDLASCMDDVIDGINSSAKRIVIYNPRPISESGKELSRLIHEEAINIGKAMDELETFRKNPKPLRDYCTQLHDIENQADDVYELFITKLFEEEKDCIELIKIKEIMHELEKTTDAAEHVGKILKNLIVKYS
